Source: article PMC8542614 (Nature, 2021)
Where two headings read alike, the source gives them in different places.

Experiments:
[1] = biological target: T1, HCV E2 ectodomain (eE2), full length, residues 384-656, genotype J6 (HCV genotype J6, N-linked glycans (fully glycosylated)); test: ITC
[2] = biological target: T1, HCV E2 ectodomain (eE2), full length, …; test: ITC; remark: listed apart in the source

B1: tamarin CD81 large extracellular loop (tCD81-LEL), residues 112-202, with plasmid-encoded N-terminal residues (domain or fragment)
chain: GFVNKDQIAKDVKQFYDQALQQAVVDDDANNAKAVVKTFHETLNCCGSSTLSALTTSMLKNNLCPSGSSIISNLFKEDCHQKIDELFSGKL
Kd [1]: 175 nM | dH [1]: -8.52 kcal/mol | stoichiometry N [1]: 0.67 | Kd [2]: 37 nM | dH [2]: -12.3 kcal/mol | stoichiometry N [2]: 0.57
